Reference: article PMC7165476 (Proceedings of the National Academy of Sciences of the …, 2020)
Where two headings read alike, the source gives them in different places.

T1: Transportin-3 (TNPO3), recombinant full length (human, UniProt Q9Y5L0 1-923)
T1 sequence (looked up): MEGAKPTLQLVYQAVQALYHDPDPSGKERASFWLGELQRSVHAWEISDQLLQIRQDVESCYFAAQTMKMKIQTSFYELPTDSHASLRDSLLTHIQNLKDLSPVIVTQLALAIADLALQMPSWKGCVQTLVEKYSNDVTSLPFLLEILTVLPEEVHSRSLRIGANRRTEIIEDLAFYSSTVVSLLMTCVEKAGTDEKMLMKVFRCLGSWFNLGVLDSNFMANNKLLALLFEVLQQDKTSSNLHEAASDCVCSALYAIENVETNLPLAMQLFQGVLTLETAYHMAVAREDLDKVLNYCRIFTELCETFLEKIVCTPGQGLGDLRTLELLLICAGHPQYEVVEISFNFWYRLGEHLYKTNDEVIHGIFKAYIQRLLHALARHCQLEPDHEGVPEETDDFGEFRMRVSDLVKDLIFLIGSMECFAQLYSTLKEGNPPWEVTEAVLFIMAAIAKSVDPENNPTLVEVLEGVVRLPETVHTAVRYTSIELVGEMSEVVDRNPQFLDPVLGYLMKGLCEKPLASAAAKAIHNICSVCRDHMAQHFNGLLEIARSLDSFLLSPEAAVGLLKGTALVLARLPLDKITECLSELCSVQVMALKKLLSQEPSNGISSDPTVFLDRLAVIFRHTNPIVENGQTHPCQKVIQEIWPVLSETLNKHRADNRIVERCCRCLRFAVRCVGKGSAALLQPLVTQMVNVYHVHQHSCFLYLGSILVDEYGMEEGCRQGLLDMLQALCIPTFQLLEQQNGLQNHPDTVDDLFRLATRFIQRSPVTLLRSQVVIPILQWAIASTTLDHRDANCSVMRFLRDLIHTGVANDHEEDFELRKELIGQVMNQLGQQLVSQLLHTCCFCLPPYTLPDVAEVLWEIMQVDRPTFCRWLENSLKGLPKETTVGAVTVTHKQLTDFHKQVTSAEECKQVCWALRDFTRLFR

T2: CIRBP RGG (CIRBPRGG) (Homo sapiens, UniProt Q14011 68-137)
T2 sequence: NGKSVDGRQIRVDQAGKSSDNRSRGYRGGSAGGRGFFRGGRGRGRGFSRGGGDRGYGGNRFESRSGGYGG

B1: Cold-inducible RNA-binding protein (CIRBP), full length, untagged (natural protein, human, UniProt Q14011 1-172, looked up)
chain: MASDEGKLFVGGLSFDTNEQSLEQVFSKYGQISEVVVVKDRETQRSRGFGFVTFENIDDAKDAMMAMNGKSVDGRQIRVDQAGKSSDNRSRGYRGGSAGGRGFFRGGRGRGRGFSRGGGDRGYGGNRFESRSGGYGGSRDYYSSRSQSGGYSDRSSGGSYRDSYDSYATHNE
B2: (UG)12 RNA (ssRNA)
RNA: UGUGUGUGUGUGUGUGUGUGUGUG

Experiments:
[1] = molecular target: TNPO1 lacking the disordered acidic loop (TNPO1^Δloop) (human) (UniProt Q92973); test: ITC
Chain of TNPO1 lacking the disordered acidic loop (TNPO1^Δloop) (human) (Q92973 whole entry, stated change not applied): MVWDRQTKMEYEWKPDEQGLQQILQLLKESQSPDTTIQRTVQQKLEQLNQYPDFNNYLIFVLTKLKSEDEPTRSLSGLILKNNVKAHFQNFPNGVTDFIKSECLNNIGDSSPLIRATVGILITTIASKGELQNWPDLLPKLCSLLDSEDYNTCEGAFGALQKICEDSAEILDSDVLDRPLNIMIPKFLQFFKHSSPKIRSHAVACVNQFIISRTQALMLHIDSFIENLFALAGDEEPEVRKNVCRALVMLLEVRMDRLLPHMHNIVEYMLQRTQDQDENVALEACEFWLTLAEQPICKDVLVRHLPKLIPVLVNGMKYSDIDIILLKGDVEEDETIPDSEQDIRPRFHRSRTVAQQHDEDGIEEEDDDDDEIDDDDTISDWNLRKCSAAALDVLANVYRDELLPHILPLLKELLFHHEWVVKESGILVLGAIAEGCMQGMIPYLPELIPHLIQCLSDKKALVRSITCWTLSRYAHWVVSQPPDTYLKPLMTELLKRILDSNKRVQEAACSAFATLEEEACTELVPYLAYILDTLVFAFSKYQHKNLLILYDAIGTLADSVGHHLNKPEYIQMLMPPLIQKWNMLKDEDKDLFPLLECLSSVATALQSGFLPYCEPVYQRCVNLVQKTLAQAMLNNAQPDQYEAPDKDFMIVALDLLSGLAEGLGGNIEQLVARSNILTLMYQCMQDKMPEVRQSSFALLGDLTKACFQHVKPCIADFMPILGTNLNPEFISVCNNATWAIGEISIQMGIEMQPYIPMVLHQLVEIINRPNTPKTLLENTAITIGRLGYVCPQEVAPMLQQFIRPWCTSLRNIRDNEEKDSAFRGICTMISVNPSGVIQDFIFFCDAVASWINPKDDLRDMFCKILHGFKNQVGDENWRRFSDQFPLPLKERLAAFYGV

[2] = molecular target: Transportin-1 (TNPO1), recombinant full length (human) (UniProt Q92973); test: ITC
Chain of Transportin-1 (TNPO1), recombinant full length (human) (Q92973 whole entry): as the sequence (Q92973 whole entry, stated change not applied) above

[3] = molecular target: Transportin-3 (TNPO3), recombinant full length (human) (UniProt Q9Y5L0); test: ITC
[4] = molecular target: Transportin-3 (TNPO3), recombinant full length (human) (UniProt Q9Y5L0); test: ITC; remark: listed apart in the source
[5] = molecular target: TNPO1 acidic loop (TNPO1^loop) (human); test: NMR titration
Chain of TNPO1 acidic loop (TNPO1^loop) (human) (Q92973 whole entry): as the sequence (Q92973 whole entry, stated change not applied) above

[6] = molecular target: T1, Transportin-3 (TNPO3), recombinant full …; test: ITC
CIRBP RGG (CIRBPRGG) = molecular target: T2, CIRBP RGG (CIRBPRGG); test: NMR

| Molecule | Kd [1] [nM] | dH [1] [kcal⋅mol^−1] | Kd [2] [nM] | dH [2] [kcal⋅mol^−1] | Kd [3] [nM] | dH [3] [kcal⋅mol^−1] | also measured |
| --- | --- | --- | --- | --- | --- | --- | --- |
| CIRBP C-terminal RSY-rich region (CIRBP^RSY) (domain or fragment) | 8080 | -19 | 7800 | -10 | 114 | -34.9 |  |
| PY-NLS of FUS (FUS^PY-NLS) (domain or fragment) | 62 | -20.6 | 48 | -21.9 |  |  |  |
| PRMT1-methylated CIRBP RG/RGG region (meCIRBP^RGG) (domain or fragment) |  |  |  |  | 3300 | -23 |  |
| Cold-inducible RNA-binding protein (CIRBP), full length, untagged (from UniProt Q14011 1-172) (natural protein) |  |  | 741 | -21 |  |  |  |
| CIRBP RG/RGG-rich region (CIRBP^RGG) (domain or fragment) | 364 | -22.3 | 75 | -11.3 | 584 | -27 | Kd [4]: 589 nM; Kd [5]: 57000 nM |
| B1 |  |  |  |  |  |  | Kd [6]: 289 nM; dH [6]: -58.6 kcal⋅mol^−1 |
| B2 |  |  |  |  |  |  | binding result (CIRBP RGG (CIRBPRGG)): binds |
